Measured values as given in FireProtDB (doi:10.1002/prot.24420).
Where “and” joins values, the source holds several entries; their conditions need not be identical. Identical values can stand only once.

B1: N715A, Q8GRA2 (parent)
chain: MKKTRFPNKLNTLNTQRVLSKNSKRFTVTLVGVFLMIFALVTSMVGAKTVFGLVESSTPNAINPDSSSEYRWYGYESYVRGHPYYKQFRVAHDLRVNLEGSRSYQVYCFNLKKAFPLGSDSSVKKWYKKHDGISTKFEDYAISPRITGDELNQKLRAVMYNGHPQNANGIMEGLEPLNAIRVTQEAVWYYSDNAPISNPDESFKRESESNLVSTSQLSLMRQALKQLIDPNLATKMPKQVPDDFQLSIFESEDKGDKYNKGYQNLLSGGLVPTKPPTPGDPPMPPNQPQTTSVLIRKYAIGDYSKLLEGATLQLTGDNVNSFQARVFSSNDIGERIELSDGTYTLTELNSPAGYSIAEPITFKVEAGKVYTIIDGKQIENPNKEIVEPYSVEAYNDFEEFSVLTTQNYAKFYYAKNKNGSSQVVYCFNADLKSPPDSEDGGKTMTPDFTTGEVKYTHIAGRDLFKYTVKPRDTDPDTFLKHIKKVIEKGYREKGQAIEYSGLTETQLRAATQLAIYYFTDSAELDKDKLKDYHGFGDMNDSTLAVAKILVEYAQDSNPPQLTDLDFFIPNNNKYQSLIGTQWHPEDLVDIIRMEDKKEVIPVTHNLTLRKTVTGLAGDRTKDFHFEIELKNNKQELLSQTVKTDKTNLEFKDGKATINLKHGESLTLQGLPEGYSYLVKETDSEGYKVKVNSQEVANATVSKTGITSDETLAFENNKEPVVPTGVDQKINGYLALIVIAGISLGIWGIHTIRIRKHD

Variants of: B1
Conditions: Streptococcus pyogenes; pH 7.2; Thermal; CD; Potassium phosphate 50mM; structure 2XIC; whole UniProt chain shown

Row | Variant | unfolding enthalpy (van 't Hoff) | change of melting temperature, mutant - wild type (higher = more stable)
1 | N715A | 147 kcal/mol and 85.9 kcal/mol | 
2 | D595A | 108 kcal/mol and 115 kcal/mol | 
3 | D595A N715A | 62.1 kcal/mol and 71.4 kcal/mol | 
4 | C426A | 113 kcal/mol and 123 kcal/mol | -1.7 °C and 0.2 °C
